Experimental data reported in the nanobody polyreactivity screen of Harvey et al. (2022).

Experiment: yeast display, Sf9 membrane polyspecificity reagent, FACS + sequencing; frameworks hold sequencing errors
In short: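 Genes from sorted yeast were amplified by colony PCR, read by MiSeq 2 × 250 sequencing and filtered on CDR length. These cells carried a synthetic nanobody library in Saccharomyces cerevisiae BJ5465 and were sorted by FACS into low and high (top ~1%) gates on anti-HA and streptavidin fluorescence. Polyreactivity is labelled according to the gate of origin.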
For “QVQLVESGGGLVQSGGSLRLSCAASGRTIGAYAMGWYRQAPGKEREFVAAITFGGGPTYYADSVKGRFTISRDNAKNTVYLQMNSLKPEDTAVYYCAKRIDLSFPFARYDYWGQGTQVTVSS”, the “polyreactivity (PSR sort gate)” value was “low polyreactivity”.
In the case of “QDQLVESGGGLVQAGGSLRLSCAASGRIFDTYAMGWYRQAPGKERELDAAITRRGGSTYYADSVKGRFTISRDIAKNTVYLQMNSLKPEDTAVYYCAKSLVNRHYDYWGQGTQVTVSS”, the “polyreactivity (PSR sort gate)” value is reported as “low polyreactivity”.
In the case of “QVQLVESGGGLVQEGGSLRLICAASGRTVNTNALGLYRQAPGKEREFVAAISRSGGSTRYADSVKGRFTISRDNAKNTVYLQLNSLKPEDTAVYYCAAVRFRPRGNEYWGQGTQVTVSS”, the “polyreactivity (PSR sort gate)” value is reported as “high polyreactivity”.
For “QVQLVESGGGLVQAGGSLRLSCAASGRTALIYAMGWYRQAPGKERELVAAITASGGNTDYADSVKGRFTISRDNAMNTVYLQMNSLKPEDTAVYYCNKSRYDGGSGYDYWGQGTQVTVSS”, the “polyreactivity (PSR sort gate)” value was “low polyreactivity”.
With “QVQLVESGGGLVQAGGSLRLSCAASGSIFSSYAMGWYRQAPGKERELVAVITSGDSTNYADSVKGRFTISRDNAKNTVYLQMNSLKPEDTAVYYCNADSYGGSDRYDYWGQGTQVTVSS” the “polyreactivity (PSR sort gate)” value was “low polyreactivity”.
In the case of “QVQLVESGGGLVQAGGSLRLSCAASGRTYRFNAMGWYRQAPGKERELVAAISKSGGSTYYADSVKGRFTISRDNAKNTVYLQMNSLKPEDTAVYYCAAQTYLYEYKYWGQGTQVTVSS”, the “polyreactivity (PSR sort gate)” value is reported as “high polyreactivity”.
For “QVQLVESGGGLVQAGGSLRLSCAASGFTFTRNAMGWSRPAPGKERELVAAISKRGGTTYYADSVKGRFTISRDNAKNTVYLQMNSLKPEDTAVYYCAKDGGITGGYWGQGTQVSVSS”, the “polyreactivity (PSR sort gate)” value was “high polyreactivity”.
For “QVQLVESGGGLVQAGGSLRLSCAASGRTSVLYAMGWSRQAPGKEREFVAAITWNSGSTYYADSVKGRFTISRDNAKNTVYLQMISLKPEDTAVYYCNADYYFTSYRSTYDYWGQGTHVTVSS”, the “polyreactivity (PSR sort gate)” value was “low polyreactivity”.
In the case of “QVQLVESGGGLVQAGGSLRLSCAASGSTFRWNAMGWYRQAPGKERELVAAISNGGSTNYADSVKGRFTISRDNAKNTVYLQMNSLIPEDTAVYYCATDGWYGQHYYDYDFDYYYWGQGTQVTVSS”, the “polyreactivity (PSR sort gate)” value is reported as “low polyreactivity”.
For “QVQLVESGGGLVQAGCSLRLSCAASGRTFYPYAMGWYRQAPRKERELVAAINWSGTSTYYADSVKGRFTISRDNAKNTVYLQMNSLKTEDTAVYYCAAKQYPVLHYSLTEADMDYWGQGTQVTVSS”, the “polyreactivity (PSR sort gate)” value was “low polyreactivity”.
In the case of “QVQLVESGGGEVQAGGSLRLSCAASGNIFVKYNMGWYRQAPGKERKLVAAIRWSGGTTNYADSVKGRFTISRDNAKSTVYLQMNSLKPEDTAVYYCNTGYWFFGYNEYDYWGQGTQVTVSS”, the “polyreactivity (PSR sort gate)” value is reported as “low polyreactivity”.
With “QVQLVESGGGLVQAGGSLRLSCAASGNIFAWYAMGWYRQAPGKERELVADISSRGGSTYYADSVKGRFTISRDNAKNTVYLQMNRLKPEDTAVYYCAAVWYWTQDYDYWGQGTQVTVSS” the “polyreactivity (PSR sort gate)” value was “low polyreactivity”.
With “QVQLVESGGGLVQAGGSLRLSCAASGRIFYGYAKGWYRQAPGKERELVASISRRGYSTYYADSVKGRFTISRDNAKNTVYLQMNSLKPEDTAVYYCAAGYYPFNYWCQGTQVTVSS” the “polyreactivity (PSR sort gate)” value was “high polyreactivity”.
With “QVQLVESGGGLVQAGGSLRLSCAASGSSFLSNTMGWYRQAPGKECELVAAITSGGDTSYADSVKGRFTISRDNAKNTVYLHMKILKADDTAVYYCNVDTSATCYSSEYDYWGQGTQVSVSS” the “polyreactivity (PSR sort gate)” value was “low polyreactivity”.
For “QVQLVESGGGLVQAGGSLRLSCAASGSIFTDNAMGWYRQAPGKERALVAAISWIGDSTDYADSVKGRFTISRDNAKNTVYLQMNSLKPDDTAVYFCAADAKVVSPLYRANDIGMYYWGQGTQVTVSS”, the “polyreactivity (PSR sort gate)” value was “low polyreactivity”.
For “QVQLVESGGGLVQAGGSLRLSCAASGITFDLYDMGWYRQAPGKERDFVAAITDADSTYYADSVKGRFTISRDNAKNTVYLQMNSLKPEDTAVYYCAADFFYSVYSGHYDYWGQGTQVTVSS”, the “polyreactivity (PSR sort gate)” value was “low polyreactivity”.
In the case of “QVQLVESGGGLVQAGGSLRLSCAASGFTFYYNAMGWYRQAPGKERELVAGISGRGGTTYYADSVKGRFTISRDNAKNTVYLQMNSLKPEDTAVYYCAARKVRARSKFEYWGQGTQVTVSS”, the “polyreactivity (PSR sort gate)” value is reported as “high polyreactivity”.
With “QVQIVESGGGLVQAGGSLRISCAASGRTFYWNAMGWNREAPGKEMELVSAISDGGGSTYYADSVKGRFSISRDNAKNTVYLQMNSLKPEDTAVYYCNTPDNQDKPYPGYDYWGQGTQVTVSS” the “polyreactivity (PSR sort gate)” value was “low polyreactivity”.
In the case of “QVQLVESGGGLVQAGGSLRLSCAASGSTFPTYGMGWYRQAPGKEREFVARINWNGGGTYYADSVKGRFTISRDNAKNTVYLQMNSLKPEDTAVYYCNARKRGARFILGYDYWGQGTQVTVSS”, the “polyreactivity (PSR sort gate)” value is reported as “low polyreactivity”.
With “QVQLVESGGGLVQAGGSLRLSCAASGSTFDDYVMGWYRQAPGKERELVAGINSRGTSTDYAGSVKGRFTISRDNAKNTVYLQMNSLKPEDTAVYYCAADDSHGYDYWGQGTQVTVSS” the “polyreactivity (PSR sort gate)” value was “low polyreactivity”.
For “QVQLVESVGGLVQAGGSLRLSCAASGRTLSYYAMGRYRQAPGKVRELVAAISRRGGSTYYADSVKGRFTISRDKAKNTVYLQMNCLQSKDTAFYYCAATVGNAADYDYGYWGQGTQVTVSS”, the “polyreactivity (PSR sort gate)” value was “high polyreactivity”.
With “QVQLVESAGALVQAGGRLRLSCAASGRTFRKYAMGWYRQAPGTERELVAAISWSGGSTYYANSVKGRFTISRDNAKNTVYLQMNSLKPEDTAVYYWAAVPVHTGSLYWGFTTGYDYWGQGTQVTVSS” the “polyreactivity (PSR sort gate)” value was “low polyreactivity”.
With “QVQLEESGGGLVQAGGSLRLSCAASGGIFGWYTMGWNRQAPGKERELVAAINFSGSRTYYADSVKGRFTISRHNAKNTVYLQMNSLKPEDTAVYYCNAVYHQFRVEYWGQGTQVTVSS” the “polyreactivity (PSR sort gate)” value was “high polyreactivity”.
With “QVQLVESGGGLVQAGVSLRLSCAASGRTFFLYAMGWYRQAPGKERELVARISTSGGGTYYADSVKGRFTISRDNAKYTVYLQMNSLKPEDTAVYYCAARTFRGQRRAGGYDYWGQGTQVTVSS” the “polyreactivity (PSR sort gate)” value was “high polyreactivity”.
In the case of “QVQLVESGGGLVQAGGSLRLSCAASGFTFWQYTMGWYRQAPGKERDFVASITSGVSTYYADSVKGSFTISRENAKNTVYLQMNSVKPEDTAVYYCAAYYYRRYLRGFFENWGQGTQVTVSS”, the “polyreactivity (PSR sort gate)” value is reported as “high polyreactivity”.
With “QVQLVESAGGIVQAGGSLRLSCAASGFTFTGYAMGWYRQAPGKEREMVAAINARGTSTYYADSVKGRFTISRDNAKNTVYLQMNSLKPEDTAVYYCNREGRSVSGYYYYWGQGTQVTVSS” the “polyreactivity (PSR sort gate)” value was “high polyreactivity”.
In the case of “QVQLVESGGGLVQAGGSLRLSCAASGSTFGKYAMGWYRQAPGKEREFVAAITWSGGRTYYADSVKGRFTISRDNAKNTVYLQMNSLKPEDTAVDYCAALWAYYSRGYYWGQGTQVTVSW”, the “polyreactivity (PSR sort gate)” value is reported as “high polyreactivity”.
With “QVQLVESGGGLVQAGGSLRLSCADSGSIFAYAMGCSRQAPRKESELVAGISSSGGRTYYADSVKGRFSISRDNAKNTVYLQMNSLKPEDTAVYYCAAKRWGLYKGYYWGQGTQVTVSS” the “polyreactivity (PSR sort gate)” value was “high polyreactivity”.
For “QVQLVESGGGLVQAGGSHRLSCASSGRTLLAYAMGWYIQAPGKEREFVDAISSRGVRTYYADSVKGRFTISRDNANNTVYLQMNSLKPEDTAVYYCASRGTKSIKDVPGIRYGYWGQGTQVTVSS”, the “polyreactivity (PSR sort gate)” value was “high polyreactivity”.
For “QVQLVESGGGLVQAGGSLRLSCAASGRTFYFNAMGWYRPAPGKERELVAAITSGVRTKYADSVKGRFTISRDNAKNTVYLQMNSLKPEDTAVYYCAAGGYPSRYAPWMEYWGQGTQVTVSS”, the “polyreactivity (PSR sort gate)” value was “high polyreactivity”.
With “QVQLVESGGGLFQAGGSLRLSCAASGRTFQVNAMAWYRHAPGKERELVAAISASDGSTYADSVKGRFTISRDNAKNTVYLQMNSLKPEDTAVYYCNKADYGGHRTSEQVGWVYLYDYWGQGTQVTVSS” the “polyreactivity (PSR sort gate)” value was “low polyreactivity”.
With “QVQLVESGGGLVQAGGSLRLSCAASGLTFQSNAMGWYRQAPGKEREFVAAITSGGNTYYADSVKGRFTISRDNAKNTVYLQMNSLKPEDTAVYYCNADYQDEEDDYWGQGTQVTVSS” the “polyreactivity (PSR sort gate)” value was “low polyreactivity”.
With “QVQLVESGGGLVQAGGSLRLSCAASGSILVANGMGWYRKAPGKERELVAGITTRGGNTYYADSVKGRFTISRDNAKNTVYLQMNSLKPEDTAVYYCATDLIGVWYWYEYWGQGTQVTVSS” the “polyreactivity (PSR sort gate)” value was “low polyreactivity”.
In the case of “QVQLVESGGGLVQAGGSLRLSCAASGSIGYYVMGWYRQAPGKERELVAVITFGGASTYYADSVKGRFTISRDNAKNTVYLQMNSLKPEDTAVYYCARYQHRLVYGYGYWGQGTQVTVSS”, the “polyreactivity (PSR sort gate)” value is reported as “low polyreactivity”.
With “QVQLVESGGGLVHAGGSLRLSCAASGFTIERYAMGWYRQAAGKERELVAVISTSGGSTYYADSVNWRYTITRDNAKNSVYLQMNSLKPEDTAVYYCAKDGSSRGDYHFGWGYYYWGQGTQVTVSS” the “polyreactivity (PSR sort gate)” value was “low polyreactivity”.
In the case of “QVQLVESGGGLVQAGGSLRLSCAASGIIFRYYAMGWYRQAPGKEREFVADISASDGSTYYADSVKGRFTISRDNAKNTVYLQMNSQKPEDTAVSYCNARKYWKYGSYQYYWGQGTEVTVSS”, the “polyreactivity (PSR sort gate)” value is reported as “high polyreactivity”.
In the case of “QVQLVESGGGLVQAGGSLRLSCAASGSTFYHNVMGWYRQAPGKERELVASIDTGDSTNYADSVKGRFTISRDNAKNTVYLQMNSLITEHTAVYYCNADSYPALNKRGYEYWGQGTQVTVSS”, the “polyreactivity (PSR sort gate)” value is reported as “low polyreactivity”.
In the case of “QVQLVDSGGGLVQAGGSLRLSCAASGRIFPYYAMGWYRQAPGKERELVAAISSGGSTKYADSVKGRFTISRDNAKNTVYLQMNSLKPEDTAVYYCAKDPFPWALFDYWGQGTLVTVSS”, the “polyreactivity (PSR sort gate)” value is reported as “low polyreactivity”.
With “QVQLVESGGGLVQAGGSLRLSCAASGRIFGKYVMGWYRQAPGKERELVAAISRSGGSTSYADSVKGRFTISRDNAKNTVYLQMNSLKPEDTEVYYCAAGFLSGWWFAYDYWGQGTQVTVSS” the “polyreactivity (PSR sort gate)” value was “high polyreactivity”.
With “QVQLVESGGGLVQAGGSLRLSCAASGSTFGWNAMGWYRQAPGKERELVAAITADDDDTYYADSVKGRFTISRDNAKNTVYLQMNSLKPEDTAVYYCATEKWFWYGDWYDYWGQGTQVTLSS” the “polyreactivity (PSR sort gate)” value was “high polyreactivity”.
With “QVQLVESGGGLVQEGGSLRLSCAASGSIFWPNAMGWYRQAPGKERELVAAISWGTGSTYYADSVKGRFTISRDNAKNTVYLQINSLKPEDSAVYYCNAEYVVAFGYQYGEYDYWGQGTQVTVSS” the “polyreactivity (PSR sort gate)” value was “low polyreactivity”.
In the case of “QVQLVESGGGLVQAGGSLRLSCAASGSTFTYYAMGWYRQAPGKERELVAAITGSDGRTYYADSVKGRFTISRDNAKNTVYLQMNSLKPEDTAVYYCAAYFTRYDFRWHTYYYWGQGTQVTVSS”, the “polyreactivity (PSR sort gate)” value is reported as “low polyreactivity”.
In the case of “QVQLVESGGGLVQAGGSLRLSCAASGSTFLVYAMGWYRQAPGKERELVAVIRWRDGSTYYADSVKGRFTISRDNAKNTVYLQMNSLKPEDTAVYYCAAVYWGEEYEYWGQGTQVTVSS”, the “polyreactivity (PSR sort gate)” value is reported as “low polyreactivity”.
